Results: paper PMC12671567 (Cancer research, 2026)
Changes are numbered by the printed parent chain.

B1: 22F1A9 (antibody, V domains shown)
VH: EVQLVESGGGLVKPGGSLKLSCAASGFTFSSYAMSWVRQTPEKRLEWVATISDGGSYTYYPDNVKGRFTISRDNTKNNLYLQMSHLKSEDTAMFYCARDLSPLYYRGPMDYWGQGTSVTVSS
VL: DIQMTQSPASLSASLGERVSLTCRASQDIGSSLNWLQQEPDGTIKRLIYATSSLDSGVPKRFSGSRSGSDYSLTISSLESEDFVDYYCLQYASSPFTFGSGTKLEIK
B2: 38B2G5 (antibody, V domains shown)
VH: QVQLQQSGAEVAKPGASVKLSCKASGYTFTSYWMHWVKQRPGQGLEWIGYINPSNNYTKYNQKFNDKATLTADKSSSTAYMQLSSLTYEDSALYYCARVYYYGNSPAWFAYWGQGTLVTVSA
VL: QIVLSQSPAILSASPGEKVTMTCRASSSVSYMHWYQQKPGSSPKPWIYATSNLASGVPARFSGSGSGTSYSLTISRVEAEDAATYYCQQWTSNPPTFGGGTKLEIK
B3: 31E6H8 (antibody, V domains shown)
VH: EVKLVESGGGLVQPGGSLSLSCAASGFTFTDYYMTWVRQPPGKALEWLGFIRNKANGYTTEYSASVKGRFTISRDNSQSILSLQMNALSAEDSATYYCASLVLRGFAYWGQGTLVTVSA
VL: not shown
B4: 35G6G1 (antibody, V domains shown)
VH: B3 VH with T30A, Y58F, S82Y, S89R, S100R, L101Y, V102G
VL: DIVMTQSPSSLAMSVGQKVTLNCKSSQSLLNSSNQKNYLAWYQQKPGQSPKLLVYFASTRESGVPDRFIGSGSGTDFTLTISSVQAEDLADYFCHQHYSTPFTFGSGTKLEMK
B5: 66E8F8 (antibody, V domains shown)
VH: B3 VH with T35S, G49C, S82Y, M85V, S89R, S100T, L101Y, F106L
VL: not shown
B6: 56C3E6 (antibody, V domains shown)
VH: B3 VH with K3N, G16D, A24T, T35S, S82Y, S89R, A90P, L101P, Q111R
VL: DIQMTQSPASLSASVGETVTITCRASGNIHNYLAWYQQKQGKSPQLLVYNAKTLADGVPSRFSGSGSGTQYSLKINSLQPEDFGSYYCQHFWSTPFTFGSGTKLEIK
B7: 36F7B3 (antibody, V domains shown)
VH: B3 VH with G49C, S82Y, M85V, S89R, S100T, L101Y, F106L
VL: not shown
B8: 35B3F9 (antibody, V domains shown)
VH: EVKLVESGGGLVQPGGSLRLSCAASGFTFTDYYMSWVRQPPGKALEWLGFIRNKVSGYTTDNSASVKGRFTISRDDSQSIVYLQMNDLRAEDSATYYCARYVSLWLLGYFDVWGTGTTVTVSS
VL: DVQITQSPSYLAASPGETITINCRASKSISKYLAWYQEKPGKTNKLLIYSGSTLQSGIPSRFSGSGSGTDFTLTISSLEPEDFAMYYCQQHNEYPLTFGTGTKLELK
B9: 73D4G2 (antibody, V domains shown)
VH: B8 VH with K3R, V55P, D61E, N62Y, D76N, V81L, D87A, V102I, F110L
VL: B8 VL with T20I, A25T, T100A
B10: 38D6A8 (antibody, V domains shown)
VH: EVKLVESGGGLVQPGGSLSLSCAASGFTFTDYYMSWVRQPPGKALEWLGFIRNKASGYTTEYSASVKGRFTISRDNSQNILYLQMNALRAEDGATYYCVRYISLWLLGYFDVWGTGTTVTVSS
VL: B8 VL with E93D, T100A
B11: 54C2F11 (antibody, V domains shown)
VH: B10 VH with K3R, S19R, A55P, N79S, G93S, V99A, F110L
VL: B8 VL with T20I, A25T, T100A, K107N
B12: 48D6F4 (antibody, V domains shown)
VH: B10 VH with K3R, S19R, A55P, I72F, N79S, G93S, V99A, F110L
VL: B8 VL with T20I, A25T, K45N, T72S, M85I, T100A, K107N
B13: 68B1E2 (antibody, V domains shown)
VH: B10 VH with S63N
VL: B8 VL with E93D, T100A
B14: recombinant 68A11A1 antibody (IgG1 isotype), anti-Siglec-10 monoclonal antibody (antibody, V domains shown)
VH: B8 VH with R19S, N62Y, A64S, I72F, D76N, Q84H, D87A, A99T
VL: B8 VL with I4L, A25T, T100A

Target: recombinant human Siglec-10 protein (Siglec-10 antigen coated in ELISA) (Homo sapiens (Human)., UniProt Q96LC7)
Test: not given

Sequence of recombinant human Siglec-10 protein (Siglec-10 antigen coated in ELISA) (Q96LC7 17-550): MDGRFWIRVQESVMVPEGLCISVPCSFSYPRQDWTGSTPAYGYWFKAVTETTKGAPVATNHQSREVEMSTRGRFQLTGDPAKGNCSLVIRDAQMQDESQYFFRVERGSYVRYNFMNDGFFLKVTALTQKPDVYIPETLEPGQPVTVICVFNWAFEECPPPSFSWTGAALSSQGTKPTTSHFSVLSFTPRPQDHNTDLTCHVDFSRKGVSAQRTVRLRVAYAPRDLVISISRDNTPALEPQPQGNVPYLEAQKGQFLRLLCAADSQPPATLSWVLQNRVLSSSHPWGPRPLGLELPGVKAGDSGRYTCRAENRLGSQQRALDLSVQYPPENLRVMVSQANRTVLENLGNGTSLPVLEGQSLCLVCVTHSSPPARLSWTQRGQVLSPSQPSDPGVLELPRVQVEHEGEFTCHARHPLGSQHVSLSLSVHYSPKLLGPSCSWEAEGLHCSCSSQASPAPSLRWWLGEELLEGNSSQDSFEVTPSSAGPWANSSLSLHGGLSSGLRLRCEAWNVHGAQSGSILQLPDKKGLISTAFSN

**Q.** Does B1 bind?
**A.** binds

**Q.** Does B2 bind?
**A.** binds

**Q.** Does B3 bind?
**A.** binds

**Q.** Does B4 bind?
**A.** binds

**Q.** Does B5 bind?
**A.** binds

**Q.** Does B6 bind?
**A.** binds

**Q.** Does B7 bind?
**A.** binds

**Q.** Does B8 bind?
**A.** binds

**Q.** Does B9 bind?
**A.** binds

**Q.** Does B10 bind?
**A.** binds

**Q.** Does B11 bind?
**A.** binds

**Q.** Does B12 bind?
**A.** binds

**Q.** Does B13 bind?
**A.** binds

Target: Siglec-5 antigen (recombinant Siglec-5 protein coated in ELISA) (Homo sapiens (assumed), UniProt O15389)
Test: ELISA

Sequence of Siglec-5 antigen (recombinant Siglec-5 protein coated in ELISA) (O15389 17-551): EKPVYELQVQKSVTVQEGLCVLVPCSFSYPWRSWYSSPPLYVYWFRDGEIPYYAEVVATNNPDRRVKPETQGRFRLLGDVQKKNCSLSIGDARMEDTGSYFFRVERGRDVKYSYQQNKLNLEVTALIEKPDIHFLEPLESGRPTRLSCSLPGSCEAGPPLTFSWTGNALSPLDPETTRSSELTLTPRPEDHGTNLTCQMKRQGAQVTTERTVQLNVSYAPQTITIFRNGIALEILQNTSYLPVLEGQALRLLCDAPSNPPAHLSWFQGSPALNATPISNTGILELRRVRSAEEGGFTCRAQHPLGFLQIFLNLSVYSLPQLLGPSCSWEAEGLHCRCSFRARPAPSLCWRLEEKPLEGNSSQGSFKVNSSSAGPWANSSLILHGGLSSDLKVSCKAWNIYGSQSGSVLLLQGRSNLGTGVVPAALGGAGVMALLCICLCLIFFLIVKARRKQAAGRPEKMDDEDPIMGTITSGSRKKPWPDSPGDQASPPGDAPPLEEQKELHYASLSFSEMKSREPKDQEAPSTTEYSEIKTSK

**Q.** Does B14 bind?
**A.** no binding
